Experimental data taken from PMC4893161, “The Dynamic Localization of Cytoplasmic Dynein in Neurons Is Driven by Kinesin-1” (Neuron, 2016).

Assays:
[1] = target: HA-tagged KLC2 (kinesin light chain 2) (UniProt O88448); experiment: co-immunoprecipitation (IP with anti-mCherry, western blot band intensity); details: COS cells cotransfected, n = 4 experiments, parent: est. 1, read off a plot
[2] = target: HA-tagged KLC1 (kinesin light chain 1) (UniProt O88447); experiment: as above; details: COS cells cotransfected, n = 6 experiments, parent: est. 1, read off a plot
HA-tagged KLC1 (kinesin light chain 1), sequence (O88447 whole entry, the tested form may be a part): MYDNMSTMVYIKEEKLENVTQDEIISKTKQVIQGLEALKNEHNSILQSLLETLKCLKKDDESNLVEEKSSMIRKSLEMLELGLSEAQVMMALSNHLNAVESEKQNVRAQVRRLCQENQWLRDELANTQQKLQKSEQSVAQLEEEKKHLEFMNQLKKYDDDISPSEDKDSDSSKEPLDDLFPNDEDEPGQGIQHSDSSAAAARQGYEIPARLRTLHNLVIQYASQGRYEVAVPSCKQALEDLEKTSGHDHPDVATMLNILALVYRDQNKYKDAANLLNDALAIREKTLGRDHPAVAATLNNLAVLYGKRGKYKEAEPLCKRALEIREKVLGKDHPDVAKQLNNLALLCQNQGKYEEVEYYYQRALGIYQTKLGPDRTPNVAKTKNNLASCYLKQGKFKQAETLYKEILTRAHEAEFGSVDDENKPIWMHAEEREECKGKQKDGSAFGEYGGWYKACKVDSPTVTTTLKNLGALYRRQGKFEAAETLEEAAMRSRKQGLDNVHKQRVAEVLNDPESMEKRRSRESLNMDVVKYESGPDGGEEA

[3] = target: KLC2^TPR, purified TPR domain of KLC2; experiment: fluorescence polarisation; TAMRA-conjugated DIC1 tryptophan-motif peptides with purified KLC1 or KLC2 TPR domain; KD values determined at 150 mM NaCl

HA-tagged KLC2 (kinesin light chain 2), sequence (O88448 whole entry): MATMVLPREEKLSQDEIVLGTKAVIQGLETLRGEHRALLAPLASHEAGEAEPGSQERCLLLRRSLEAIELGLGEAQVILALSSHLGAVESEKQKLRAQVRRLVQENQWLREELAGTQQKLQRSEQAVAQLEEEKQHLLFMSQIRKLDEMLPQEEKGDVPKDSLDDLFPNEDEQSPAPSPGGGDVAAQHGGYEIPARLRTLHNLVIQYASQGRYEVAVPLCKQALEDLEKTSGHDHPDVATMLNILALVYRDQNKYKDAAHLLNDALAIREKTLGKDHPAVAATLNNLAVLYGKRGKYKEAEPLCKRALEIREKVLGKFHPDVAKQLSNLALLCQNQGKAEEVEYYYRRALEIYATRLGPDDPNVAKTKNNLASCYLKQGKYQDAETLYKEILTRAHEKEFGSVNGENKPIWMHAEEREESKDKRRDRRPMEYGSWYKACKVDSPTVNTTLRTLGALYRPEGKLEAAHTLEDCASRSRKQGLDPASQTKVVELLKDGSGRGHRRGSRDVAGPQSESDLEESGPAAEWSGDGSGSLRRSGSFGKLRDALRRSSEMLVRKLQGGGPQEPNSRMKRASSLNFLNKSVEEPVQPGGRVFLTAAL

A ratio to parent ([1]; p = 0.014 vs WT) of 0.53 and a ratio to parent ([2]; p = 0.039 vs WT) of 0.47 were found for “mCherry-tagged DIC1a (dynein intermediate chain 1, isoform a), wild-type (from UniProt Q63100) WD1&2AA” in this work.

A ratio to parent ([1]; p = 0.4 vs WT) of 0.77 and a ratio to parent ([2]; p = 1 vs WT) of 0.93 were found for “mCherry-tagged DIC1a (dynein intermediate chain 1, isoform a), wild-type (from UniProt Q63100) WD1AA” in this work.

A Kd [3] of 9.18 µM was found for “WD1^pept, TAMRA-conjugated 11-amino-acid peptide centered on the first tryptophan motif of DIC1” in this work.

A ratio to parent ([1]; p = 0.064 vs WT) of 0.63 and a ratio to parent ([2]; p = 0.08 vs WT) of 0.53 were found for “mCherry-tagged DIC1a (dynein intermediate chain 1, isoform a), wild-type (from UniProt Q63100) WD2AA” in this work.
